# How the values were obtained:
# Kir2.1 = target: T1, Kir2.1 (Homo sapiens, UniProt P63252); assay: Ion channel panel (IonWorks Barracuda): Kir2.1; type: cell-based; details: 100% = no change, <100% = inhibition
# T1 construct: host or cells: HEK293 or CHO
# Outline: (§1)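 Transfected HEK293 or CHO cells were exposed for at least 5 min to peptides at 200 nM and 20 μM final, tested in duplicate, in HEPES-buffered physiological saline. Activation was taken as peptide-plus-agonist current over control current ×100, and inhibition as 1 minus that ratio ×100. Each channel's control was its own reference compound.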
# Kv1.3 = target: T2, Kv1.3 (Homo sapiens, UniProt P22001); assay: cell-based; type: cell-based; details: 100% = no change, <100% = inhibition
# T2 construct: host or cells: HEK293 or CHO
# Outline: as §1
# Kv1.2 = target: T3, Kv1.2 (Homo sapiens, UniProt P16389); assay: cell-based; type: cell-based; details: 100% = no change, <100% = inhibition
# T3 construct: host or cells: HEK293 or CHO
# Outline: as §1
# Kv1.1 = target: T4, Kv1.1 (Homo sapiens, UniProt Q09470); assay: cell-based; type: cell-based; details: 100% = no change, <100% = inhibition
# T4 construct: host or cells: HEK293 or CHO
# Outline: as §1
# GABA = assay: Ion channel panel (IonWorks Barracuda): GABA; type: cell-based; details: 100% = no change, <100% = inhibition
# Outline: as §1
# hERG = hERG (Homo sapiens, UniProt Q12809); assay: in vitro; details: 100% = no change, <100% = inhibition
# Outline: as §1
# Nav1.5 = Nav1.5 (Homo sapiens, UniProt Q14524); assay: in vitro; details: 100% = no change; for Activity of Nav1.5 with peptide, expressed as a percentage of the reference compound: peptide at 0.2 μM; for Activity of Nav1.5 with peptide (percentage of the reference compound): peptide at 20 μM
# Chain of Nav1.5 (Q14524 whole entry): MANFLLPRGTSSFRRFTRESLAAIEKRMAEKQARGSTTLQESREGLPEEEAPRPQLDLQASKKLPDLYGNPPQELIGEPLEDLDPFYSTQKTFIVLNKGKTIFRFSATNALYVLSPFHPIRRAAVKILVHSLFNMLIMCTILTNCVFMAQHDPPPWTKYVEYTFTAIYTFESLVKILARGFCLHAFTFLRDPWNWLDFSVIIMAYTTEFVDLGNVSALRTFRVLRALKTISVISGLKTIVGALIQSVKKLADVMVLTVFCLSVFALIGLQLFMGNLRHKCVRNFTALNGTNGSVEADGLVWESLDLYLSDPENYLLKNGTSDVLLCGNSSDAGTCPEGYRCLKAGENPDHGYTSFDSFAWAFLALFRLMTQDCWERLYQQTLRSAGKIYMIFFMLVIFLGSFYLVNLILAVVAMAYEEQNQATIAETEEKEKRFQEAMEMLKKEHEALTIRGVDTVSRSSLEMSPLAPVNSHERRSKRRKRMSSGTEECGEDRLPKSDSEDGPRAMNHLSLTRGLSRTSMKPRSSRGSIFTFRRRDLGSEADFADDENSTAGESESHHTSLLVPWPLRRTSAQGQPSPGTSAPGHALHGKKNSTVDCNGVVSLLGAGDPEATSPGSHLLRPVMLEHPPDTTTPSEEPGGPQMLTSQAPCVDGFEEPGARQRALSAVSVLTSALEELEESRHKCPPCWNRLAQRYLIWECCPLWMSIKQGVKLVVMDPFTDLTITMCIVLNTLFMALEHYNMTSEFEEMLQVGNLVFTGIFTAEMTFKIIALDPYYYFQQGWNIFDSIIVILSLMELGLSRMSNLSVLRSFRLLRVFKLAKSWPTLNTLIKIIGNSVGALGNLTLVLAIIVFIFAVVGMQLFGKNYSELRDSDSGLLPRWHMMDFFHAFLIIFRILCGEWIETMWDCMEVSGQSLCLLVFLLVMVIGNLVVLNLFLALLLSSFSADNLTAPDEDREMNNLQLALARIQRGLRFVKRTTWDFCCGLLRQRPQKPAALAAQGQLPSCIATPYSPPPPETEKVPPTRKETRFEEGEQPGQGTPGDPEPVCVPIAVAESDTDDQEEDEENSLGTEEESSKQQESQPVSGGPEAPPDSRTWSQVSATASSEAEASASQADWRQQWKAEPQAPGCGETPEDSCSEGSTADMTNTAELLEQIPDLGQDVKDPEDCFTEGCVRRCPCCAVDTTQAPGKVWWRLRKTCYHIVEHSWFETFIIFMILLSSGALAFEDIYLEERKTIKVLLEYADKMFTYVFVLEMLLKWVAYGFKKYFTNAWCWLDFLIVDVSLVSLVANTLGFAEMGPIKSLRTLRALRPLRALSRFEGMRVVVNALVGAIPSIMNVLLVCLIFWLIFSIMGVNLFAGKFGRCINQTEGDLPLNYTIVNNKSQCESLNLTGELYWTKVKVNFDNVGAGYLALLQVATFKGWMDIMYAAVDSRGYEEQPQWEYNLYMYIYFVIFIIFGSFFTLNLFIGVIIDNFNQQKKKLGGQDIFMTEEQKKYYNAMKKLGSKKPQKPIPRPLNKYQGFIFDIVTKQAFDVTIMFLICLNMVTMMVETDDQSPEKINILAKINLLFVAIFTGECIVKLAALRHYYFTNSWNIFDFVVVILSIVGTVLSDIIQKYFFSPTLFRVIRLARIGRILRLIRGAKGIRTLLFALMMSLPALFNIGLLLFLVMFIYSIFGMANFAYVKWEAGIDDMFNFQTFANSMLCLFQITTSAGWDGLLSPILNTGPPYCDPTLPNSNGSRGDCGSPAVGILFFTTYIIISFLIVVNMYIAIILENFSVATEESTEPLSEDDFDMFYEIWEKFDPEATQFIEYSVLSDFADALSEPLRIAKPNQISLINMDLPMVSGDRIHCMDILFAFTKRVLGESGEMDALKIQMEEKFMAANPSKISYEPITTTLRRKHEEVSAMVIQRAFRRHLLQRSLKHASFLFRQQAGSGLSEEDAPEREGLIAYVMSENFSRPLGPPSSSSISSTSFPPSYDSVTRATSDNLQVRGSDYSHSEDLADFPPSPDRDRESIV
# Outline: as §1
# α3β4 = target: T5, α3β4 (Homo sapiens, UniProt P30926+P32297); assay: Ion channel panel (IonWorks Barracuda): α3β4; type: cell-based; details: 100% = no change, <100% = inhibition
# T5 construct: host or cells: HEK293 or CHO
# Outline: as §1
# Cav2.2 = target: T6, Cav2.2 (Homo sapiens, UniProt Q00975); assay: cell-based; details: 100% = no change, <100% = inhibition
# T6 construct: host or cells: HEK293 or CHO
# Outline: as §1
# Cav2.1 = target: T7, Cav2.1 (Homo sapiens, UniProt O00555); assay: cell-based; details: 100% = no change, <100% = inhibition
# T7 construct: host or cells: HEK293 or CHO
# Outline: as §1
# Kv2.1 = target: T8, Kv2.1 (Homo sapiens, UniProt Q14721); assay: cell-based; details: 100% = no change, <100% = inhibition
# T8 construct: host or cells: HEK293 or CHO
# Outline: as §1
# TRPA1 = target: T9, TRPA1 (Homo sapiens, UniProt O75762); assay: Ion channel panel (IonWorks Barracuda): TRPA1; type: cell-based; details: 100% = no change, <100% = inhibition
# T9 construct: host or cells: HEK293 or CHO
# Outline: as §1
# NR2B = target: T10, NR2B (Homo sapiens, UniProt Q13224); assay: Ion channel panel (IonWorks Barracuda): NR2B; type: cell-based; details: 100% = no change, <100% = inhibition
# T10 construct: host or cells: HEK293 or CHO
# Outline: as §1
# NR2A = target: T11, NR2A (Homo sapiens, UniProt Q12879); assay: Ion channel panel (IonWorks Barracuda): NR2A; type: cell-based; details: 100% = no change, <100% = inhibition
# T11 construct: host or cells: HEK293 or CHO
# Outline: as §1
# Nav1.7 = target: T12, Nav1.7 (Homo sapiens, UniProt Q15858); assay: cell-based; type: cell-based; details: 100% = no change; for Activity of Nav1.7 with peptide, expressed as a percentage of the reference compound: peptide at 0.2 μM; for Activity of Nav1.7 with peptide (percentage of the reference compound): peptide at 20 μM
# T12 construct: host or cells: HEK293 or CHO
# T12 sequence (Q15858 whole entry): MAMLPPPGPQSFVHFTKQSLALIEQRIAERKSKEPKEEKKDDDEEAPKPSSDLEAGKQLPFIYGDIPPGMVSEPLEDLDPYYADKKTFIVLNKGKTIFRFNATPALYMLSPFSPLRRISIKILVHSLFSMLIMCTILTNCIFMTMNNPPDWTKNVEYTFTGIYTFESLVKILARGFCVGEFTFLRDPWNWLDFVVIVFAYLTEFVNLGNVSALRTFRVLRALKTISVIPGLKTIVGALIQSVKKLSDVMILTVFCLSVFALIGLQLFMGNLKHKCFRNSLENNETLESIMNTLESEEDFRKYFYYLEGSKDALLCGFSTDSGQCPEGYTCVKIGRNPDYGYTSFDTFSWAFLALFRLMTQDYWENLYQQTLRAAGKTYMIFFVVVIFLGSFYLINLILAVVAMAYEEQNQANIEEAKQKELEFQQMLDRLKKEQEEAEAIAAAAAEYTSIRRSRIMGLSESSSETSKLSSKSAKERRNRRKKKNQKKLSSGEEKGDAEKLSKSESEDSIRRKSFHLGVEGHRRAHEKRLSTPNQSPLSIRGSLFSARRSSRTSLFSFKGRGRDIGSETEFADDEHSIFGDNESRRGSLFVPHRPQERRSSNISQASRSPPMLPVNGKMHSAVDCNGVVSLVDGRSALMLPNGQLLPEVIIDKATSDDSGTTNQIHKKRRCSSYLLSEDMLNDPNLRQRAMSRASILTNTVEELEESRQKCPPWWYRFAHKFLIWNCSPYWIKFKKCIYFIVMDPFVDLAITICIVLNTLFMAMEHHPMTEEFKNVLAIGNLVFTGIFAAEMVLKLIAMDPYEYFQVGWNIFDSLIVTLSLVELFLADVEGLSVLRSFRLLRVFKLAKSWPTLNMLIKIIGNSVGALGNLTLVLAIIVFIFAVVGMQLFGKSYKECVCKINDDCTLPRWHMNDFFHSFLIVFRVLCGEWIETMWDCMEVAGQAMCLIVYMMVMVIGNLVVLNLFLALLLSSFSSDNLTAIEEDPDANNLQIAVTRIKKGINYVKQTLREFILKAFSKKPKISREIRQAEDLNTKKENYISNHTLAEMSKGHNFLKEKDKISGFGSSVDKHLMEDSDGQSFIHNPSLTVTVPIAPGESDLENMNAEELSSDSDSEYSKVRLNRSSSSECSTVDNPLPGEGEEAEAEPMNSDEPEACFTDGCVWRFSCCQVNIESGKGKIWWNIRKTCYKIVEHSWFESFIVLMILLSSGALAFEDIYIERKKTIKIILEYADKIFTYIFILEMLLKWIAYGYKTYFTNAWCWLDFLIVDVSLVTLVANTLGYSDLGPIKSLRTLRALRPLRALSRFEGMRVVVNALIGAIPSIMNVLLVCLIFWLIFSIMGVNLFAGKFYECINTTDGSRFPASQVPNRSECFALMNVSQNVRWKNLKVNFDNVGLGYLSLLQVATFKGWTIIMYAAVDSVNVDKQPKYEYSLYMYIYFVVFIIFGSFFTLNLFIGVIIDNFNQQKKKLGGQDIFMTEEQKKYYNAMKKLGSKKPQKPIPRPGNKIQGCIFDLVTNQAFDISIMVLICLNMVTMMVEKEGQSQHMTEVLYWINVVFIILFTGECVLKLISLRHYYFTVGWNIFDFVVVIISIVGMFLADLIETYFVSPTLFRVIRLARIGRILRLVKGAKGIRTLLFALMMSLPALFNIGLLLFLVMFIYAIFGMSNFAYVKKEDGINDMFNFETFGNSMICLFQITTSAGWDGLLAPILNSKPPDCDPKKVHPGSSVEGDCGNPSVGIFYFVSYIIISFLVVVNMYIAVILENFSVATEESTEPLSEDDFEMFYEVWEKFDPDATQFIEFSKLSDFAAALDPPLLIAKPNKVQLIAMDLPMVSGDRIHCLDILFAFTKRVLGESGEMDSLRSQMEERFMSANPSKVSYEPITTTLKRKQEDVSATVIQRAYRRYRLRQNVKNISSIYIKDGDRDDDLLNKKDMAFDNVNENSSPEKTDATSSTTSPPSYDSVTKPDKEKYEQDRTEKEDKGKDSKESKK
# 5HT3a = target: T13, 5HT3a (Homo sapiens, UniProt P46098); assay: Ion channel panel (IonWorks Barracuda): 5HT3a; type: cell-based
# T13 construct: host or cells: HEK293 or CHO
# T13 sequence (P46098 whole entry, looked up): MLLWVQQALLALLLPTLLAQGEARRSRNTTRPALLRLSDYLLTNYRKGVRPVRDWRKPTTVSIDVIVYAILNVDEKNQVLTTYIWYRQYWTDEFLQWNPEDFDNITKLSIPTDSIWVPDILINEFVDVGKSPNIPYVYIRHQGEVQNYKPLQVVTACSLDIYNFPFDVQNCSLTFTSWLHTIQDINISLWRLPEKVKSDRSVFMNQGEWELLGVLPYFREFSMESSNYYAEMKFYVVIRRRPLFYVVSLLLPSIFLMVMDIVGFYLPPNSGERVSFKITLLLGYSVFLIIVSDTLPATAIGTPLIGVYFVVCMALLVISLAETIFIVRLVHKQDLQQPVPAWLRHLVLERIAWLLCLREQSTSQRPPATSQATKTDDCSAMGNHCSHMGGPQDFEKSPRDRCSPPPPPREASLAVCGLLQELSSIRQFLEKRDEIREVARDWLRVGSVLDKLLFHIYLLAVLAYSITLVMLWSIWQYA
# Outline: as §1
# α4β2 = target: T14, α4β2 (Homo sapiens, UniProt P17787+P43681); assay: Ion channel panel (IonWorks Barracuda): α4β2; type: cell-based; details: 100% = no change, <100% = inhibition
# T14 construct: host or cells: HEK293 or CHO
# T14 sequence (P43681 29-627): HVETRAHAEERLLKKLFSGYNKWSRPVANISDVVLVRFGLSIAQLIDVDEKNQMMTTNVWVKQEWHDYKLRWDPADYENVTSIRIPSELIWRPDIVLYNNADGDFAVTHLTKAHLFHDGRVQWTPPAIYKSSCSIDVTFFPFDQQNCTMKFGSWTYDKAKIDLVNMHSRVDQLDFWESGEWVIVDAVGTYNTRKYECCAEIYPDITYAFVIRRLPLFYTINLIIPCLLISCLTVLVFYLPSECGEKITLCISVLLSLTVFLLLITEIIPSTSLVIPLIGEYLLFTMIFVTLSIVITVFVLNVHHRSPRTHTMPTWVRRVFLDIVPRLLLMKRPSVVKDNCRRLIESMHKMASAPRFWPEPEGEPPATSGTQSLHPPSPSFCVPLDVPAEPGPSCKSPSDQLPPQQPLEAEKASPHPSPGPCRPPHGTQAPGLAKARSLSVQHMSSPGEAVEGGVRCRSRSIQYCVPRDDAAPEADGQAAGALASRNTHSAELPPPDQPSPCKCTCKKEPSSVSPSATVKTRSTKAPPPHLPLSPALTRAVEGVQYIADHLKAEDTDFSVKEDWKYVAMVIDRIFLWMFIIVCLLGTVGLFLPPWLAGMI
# T14 sequence (P17787 26-502): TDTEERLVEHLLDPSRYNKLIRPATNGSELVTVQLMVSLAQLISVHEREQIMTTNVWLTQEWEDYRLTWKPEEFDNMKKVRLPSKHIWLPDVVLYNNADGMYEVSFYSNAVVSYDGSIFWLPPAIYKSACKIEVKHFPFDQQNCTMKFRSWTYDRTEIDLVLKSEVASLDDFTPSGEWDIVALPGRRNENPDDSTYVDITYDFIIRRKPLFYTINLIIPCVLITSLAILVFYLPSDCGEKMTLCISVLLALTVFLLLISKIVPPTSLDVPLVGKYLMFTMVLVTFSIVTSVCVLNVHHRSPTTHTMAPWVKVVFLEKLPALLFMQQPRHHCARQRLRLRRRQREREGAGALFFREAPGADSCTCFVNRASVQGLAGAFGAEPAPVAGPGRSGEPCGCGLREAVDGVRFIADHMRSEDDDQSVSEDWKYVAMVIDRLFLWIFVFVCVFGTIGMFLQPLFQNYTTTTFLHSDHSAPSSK
# Outline: as §1
# TRPV1 = target: T15, TRPV1 (Homo sapiens, UniProt Q8NER1); assay: Ion channel panel (IonWorks Barracuda): TRPV1; type: cell-based; details: 100% = no change, <100% = inhibition
# T15 construct: host or cells: HEK293 or CHO
# Outline: as §1
# [1] = first of two Nav1.5 columns (probably TP1)
# [2] = second of two Nav1.5 columns (probably TP2)
# [3] = first of two Nav1.7 columns (probably TP1)
# [4] = second of two Nav1.7 columns (probably TP2)
substance,measurement,setting,value
13 (GSQKILSNRCNNSSECIPHCIRIFGTRAAKCINRKCYCYP) [compound 13],"Activity of Kir2.1 with peptide, expressed as a percentage of the reference compound",Kir2.1; peptide at 0.2 μM,97%
same,Activity of Kir2.1 with peptide (percentage of the reference compound),Kir2.1; peptide at 20 μM,98%
same,"Activity of Kv1.3 with peptide, expressed as a percentage of the reference compound",Kv1.3; peptide at 0.2 μM,68%
same,Activity of Kv1.3 with peptide (percentage of the reference compound),Kv1.3; peptide at 20 μM,64%
same,"Activity of Kv1.2 with peptide, expressed as a percentage of the reference compound",Kv1.2; peptide at 0.2 μM,88%
same,Activity of Kv1.2 with peptide (percentage of the reference compound),Kv1.2; peptide at 20 μM,40%
same,"Activity of Kv1.1 with peptide, expressed as a percentage of the reference compound",Kv1.1; peptide at 0.2 μM,107%
same,Activity of Kv1.1 with peptide (percentage of the reference compound),Kv1.1; peptide at 20 μM,79%
same,"Activity of GABA with peptide, expressed as a percentage of the reference compound",GABA; peptide at 0.2 μM,107%
same,Activity of GABA with peptide (percentage of the reference compound),GABA; peptide at 20 μM,93%
same,"Activity of hERG with peptide, expressed as a percentage of the reference compound",hERG; peptide at 0.2 μM,89%
same,Activity of hERG with peptide (percentage of the reference compound),hERG; peptide at 20 μM,67%
same,"Activity of Nav1.5 with peptide, expressed as a percentage of the reference compound",Nav1.5; [1],98%
same,"Activity of Nav1.5 with peptide, expressed as a percentage of the reference compound",Nav1.5; [2],95%
same,Activity of Nav1.5 with peptide (percentage of the reference compound),Nav1.5; [1],97%
same,Activity of Nav1.5 with peptide (percentage of the reference compound),Nav1.5; [2],101%
same,"Activity of a3b4 with peptide, expressed as a percentage of the reference compound",α3β4; peptide at 0.2 μM,103%
same,Activity of a3b4 with peptide (percentage of the reference compound),α3β4; peptide at 20 μM,83%
same,"Activity of Cav2.2 with peptide, expressed as a percentage of the reference compound",Cav2.2; peptide at 0.2 μM,121%
same,Activity of Cav2.2 with peptide (percentage of the reference compound),Cav2.2; peptide at 20 μM,100%
same,"Activity of Cav2.1 with peptide, expressed as a percentage of the reference compound",Cav2.1; peptide at 0.2 μM,109%
same,Activity of Cav2.1 with peptide (percentage of the reference compound),Cav2.1; peptide at 20 μM,100%
same,"Activity of Kv2.1 with peptide, expressed as a percentage of the reference compound",Kv2.1; peptide at 0.2 μM,104%
same,Activity of Kv2.1 with peptide (percentage of the reference compound),Kv2.1; peptide at 20 μM,116%
same,"Activity of TRPA1 with peptide, expressed as a percentage of the reference compound",TRPA1; peptide at 0.2 μM,129%
same,Activity of TRPA1 with peptide (percentage of the reference compound),TRPA1; peptide at 20 μM,113%
same,"Activity of NR2B with peptide, expressed as a percentage of the reference compound",NR2B; peptide at 0.2 μM,122%
same,Activity of NR2B with peptide (percentage of the reference compound),NR2B; peptide at 20 μM,117%
same,"Activity of NR2A with peptide, expressed as a percentage of the reference compound",NR2A; peptide at 0.2 μM,94%
same,Activity of NR2A with peptide (percentage of the reference compound),NR2A; peptide at 20 μM,108%
same,"Activity of Nav1.7 with peptide, expressed as a percentage of the reference compound",Nav1.7; [3],61%
same,"Activity of Nav1.7 with peptide, expressed as a percentage of the reference compound",Nav1.7; [4],66%
same,Activity of Nav1.7 with peptide (percentage of the reference compound),Nav1.7; [3],71%
same,Activity of Nav1.7 with peptide (percentage of the reference compound),Nav1.7; [4],62%
same,Activity of 5HT3a with peptide (percentage of the reference compound),5HT3a,84%
same,"Activity of 5HT3a with peptide, expressed as a percentage of the reference compound",5HT3a,96%
same,"Activity of a4b2 with peptide, expressed as a percentage of the reference compound",α4β2; peptide at 0.2 μM,97%
same,Activity of a4b2 with peptide (percentage of the reference compound),α4β2; peptide at 20 μM,80%
same,"Activity of TRPV1 with peptide, expressed as a percentage of the reference compound",TRPV1; peptide at 0.2 μM,97%
same,Activity of TRPV1 with peptide (percentage of the reference compound),TRPV1; peptide at 20 μM,88%

# From US20200262877A1, “ION CHANNEL-BINDING PEPTIDES AND METHODS OF USE THEREOF” (priority 2017, published 2020)
